Experimental data reported in US20200165325A1.

Experiments:
[1] = biological target: HIV-1 Env of strain 1054_07_TC4_1499 (HIV-1)
[2] = biological target: HIV-1 Env of strain 0330.v4.c3 (HIV-1)
[3] = biological target: HIV-1 Env of strain Ce2060_G9 (HIV-1)
[4] = biological target: HIV-1 Env of strain 89-F1_2_25 (HIV-1)
[5] = biological target: HIV-1 Env of strain TRJO4551.58 (HIV-1)
[6] = biological target: HIV-1 Env of strain Q259.d2.17 (HIV-1)
[7] = biological target: HIV-1 Env of strain T250-4 (HIV-1)
[8] = biological target: HIV-1 Env of strain T257-31 (HIV-1)
[9] = biological target: HIV-1 Env of strain REJO4541.67 (HIV-1)
[10] = biological target: HIV-1 Env of strain ZM197M.PB7 (HIV-1)
[11] = biological target: HIV-1 Env of strain 0815.v3.c3 (HIV-1)
[12] = biological target: HIV-1 Env of strain HIV-16845-2.22 (HIV-1)
[13] = biological target: HIV-1 Env of strain CNE17 (HIV-1)
[14] = biological target: HIV-1 Env of strain Ce0682_E4 (HIV-1)
[15] = biological target: HIV-1 Env of strain PVO.4 (HIV-1)
[16] = biological target: HIV-1 Env of strain C2101.c01 (HIV-1)
[17] = biological target: HIV-1 Env of strain 231965.c01 (HIV-1)
[18] = biological target: HIV-1 Env of strain 6811.v7.c18 (HIV-1)
[19] = biological target: HIV-1 Env of strain 3415.v1.c1 (HIV-1)
[20] = biological target: HIV-1 Env of strain CAP45.2.00.G3 (HIV-1)
[21] = biological target: HIV-1 Env of strain ZM135M.PL10a (HIV-1)
[22] = biological target: HIV-1 Env of strain 3301.v1.c24 (HIV-1)
[23] = biological target: HIV-1 Env of strain T278-50 (HIV-1)
[24] = biological target: HIV-1 Env of strain X2131_C1_B5 (HIV-1)
[25] = biological target: HIV-1 Env of strain ZM249M.PL1 (HIV-1)
[26] = biological target: HIV-1 Env of strain CNE58 (HIV-1)
[27] = biological target: HIV-1 Env of strain THRO4156.18 (HIV-1)
[28] = biological target: HIV-1 Env of strain Q461.e2 (HIV-1)
[29] = biological target: HIV-1 Env of strain 211-9 (HIV-1)
[30] = biological target: HIV-1 Env of strain 3103.v3.c10 (HIV-1)
[31] = biological target: HIV-1 Env of strain 6545.v4.c1 (HIV-1)
[32] = biological target: HIV-1 Env of strain 1006_11_C3_1601 (HIV-1)
[33] = biological target: HIV-1 Env of strain 6480.v4.c25 (HIV-1)
[34] = biological target: HIV-1 Env of strain 6540.v4.c1 (HIV-1)
[35] = biological target: HIV-1 Env of strain R2184.c04 (HIV-1)
[36] = biological target: HIV-1 Env of strain 703357.C02 (HIV-1)
[37] = biological target: HIV-1 Env of strain ZM109F.PB4 (HIV-1)
[38] = biological target: HIV-1 Env of strain ZM214M.PL15 (HIV-1)
[39] = biological target: HIV-1 Env of strain Q23.17 (HIV-1)
[40] = biological target: HIV-1 Env of strain 3718.v3.c11 (HIV-1)
[41] = biological target: HIV-1 Env of strain Ce1176_A3 (HIV-1)
[42] = biological target: HIV-1 Env of strain CNE20 (HIV-1)
[43] = biological target: HIV-1 Env of strain R1166.c01 (HIV-1)
[44] = biological target: HIV-1 Env of strain RHPA4259.7 (HIV-1)
[45] = biological target: HIV-1 Env of strain P1981_C5_3 (HIV-1)
[46] = biological target: HIV-1 Env of strain ZM233M.PB6 (HIV-1)
[47] = biological target: HIV-1 Env of strain 3016.v5.c45 (HIV-1)
[48] = biological target: HIV-1 Env of strain X1193_c1 (HIV-1)
[49] = biological target: HIV-1 Env of strain AC10.0.29 (HIV-1)
[50] = biological target: HIV-1 Env of strain C3347.c11 (HIV-1)
[51] = biological target: HIV-1 Env of strain Ce0393_C3 (HIV-1)
[52] = biological target: HIV-1 Env of strain WEAU_d15_410_787 (HIV-1)
[53] = biological target: HIV-1 Env of strain CAAN5342.A2 (HIV-1)
[54] = biological target: HIV-1 Env of strain Ce703010054_2A2 (HIV-1)
[55] = biological target: HIV-1 Env of strain C1080.c03 (HIV-1)
[56] = biological target: HIV-1 Env of strain Du172.17 (HIV-1)
[57] = biological target: HIV-1 Env of strain T251-18 (HIV-1)

Substance: NIH45-46 IgG (wild type) (antibody)
- In vitro neutralization IC80 [1]: 0.404 µg/mL
- In vitro neutralization IC80 [2]: 0.3 µg/mL
- In vitro neutralization IC80 [3]: 0.29 µg/mL
- In vitro neutralization IC80 [4]: > 50 µg/mL
- In vitro neutralization IC80 [5]: 0.13 µg/mL
- In vitro neutralization IC80 [6]: 0.154 µg/mL
- In vitro neutralization IC80 [7]: > 50 µg/mL
- In vitro neutralization IC80 [8]: 1.38 µg/mL
- In vitro neutralization IC80 [9]: 0.035 µg/mL
- In vitro neutralization IC80 [10]: 0.55 µg/mL
- In vitro neutralization IC80 [11]: 0.052 µg/mL
- In vitro neutralization IC80 [12]: 22.6 µg/mL
- In vitro neutralization IC80 [13]: 0.734 µg/mL
- In vitro neutralization IC80 [14]: 0.155 µg/mL
- In vitro neutralization IC80 [15]: 0.41 µg/mL
- In vitro neutralization IC80 [16]: 31.4 µg/mL
- In vitro neutralization IC80 [17]: 0.126 µg/mL
- In vitro neutralization IC80 [18]: 0.113 µg/mL
- In vitro neutralization IC80 [19]: 0.086 µg/mL
- In vitro neutralization IC80 [20]: > 50 µg/mL
- In vitro neutralization IC80 [21]: 2.79 µg/mL
- In vitro neutralization IC80 [22]: 0.033 µg/mL
- In vitro neutralization IC80 [23]: > 50 µg/mL
- In vitro neutralization IC80 [24]: 0.88 µg/mL
- In vitro neutralization IC80 [25]: 0.053 µg/mL
- In vitro neutralization IC80 [26]: 2.08 µg/mL
- In vitro neutralization IC80 [27]: 8.22 µg/mL
- In vitro neutralization IC80 [28]: 0.291 µg/mL
- In vitro neutralization IC80 [29]: > 50 µg/mL
- In vitro neutralization IC80 [30]: 6.15 µg/mL
- In vitro neutralization IC80 [31]: > 50 µg/mL
- In vitro neutralization IC80 [32]: 0.196 µg/mL
- In vitro neutralization IC80 [33]: 0.1 µg/mL
- In vitro neutralization IC80 [34]: > 50 µg/mL
- In vitro neutralization IC80 [35]: 0.127 µg/mL
- In vitro neutralization IC80 [36]: > 50 µg/mL
- In vitro neutralization IC80 [37]: 0.437 µg/mL
- In vitro neutralization IC80 [38]: 0.59 µg/mL
- In vitro neutralization IC80 [39]: 0.5 µg/mL
- In vitro neutralization IC80 [40]: > 50 µg/mL
- In vitro neutralization IC80 [41]: 3.17 µg/mL
- In vitro neutralization IC80 [42]: > 50 µg/mL
- In vitro neutralization IC80 [43]: 1.21 µg/mL
- In vitro neutralization IC80 [44]: 0.047 µg/mL
- In vitro neutralization IC80 [45]: 0.24 µg/mL
- In vitro neutralization IC80 [46]: 14.2 µg/mL
- In vitro neutralization IC80 [47]: > 50 µg/mL
- In vitro neutralization IC80 [48]: 0.064 µg/mL
- In vitro neutralization IC80 [49]: 1.93 µg/mL
- In vitro neutralization IC80 [50]: 0.094 µg/mL
- In vitro neutralization IC80 [51]: 0.936 µg/mL
- In vitro neutralization IC80 [52]: 0.015 µg/mL
- In vitro neutralization IC80 [53]: 0.4 µg/mL
- In vitro neutralization IC80 [54]: 0.538 µg/mL
- In vitro neutralization IC80 [55]: 11.6 µg/mL
- In vitro neutralization IC80 [56]: > 50 µg/mL
- In vitro neutralization IC80 [57]: 3.68 µg/mL
